Experimental findings from paper PMC3223204, “Implantation Serine Proteinase 1 Exhibits Mixed Substrate Specificity that Silences Signaling via Proteinase-Activated Receptors” (PLoS ONE, 2011) are described below.

One assay addresses T1, human PAR1 (Homo sapiens, UniProt P25116).
T1 construct: The human HEK293 cells, that constitutively express both PAR1 and PAR2; endogenous in cells; host or cells: HEK293 (expressing SV40 T-antigen)
T1 sequence (P25116 22-425): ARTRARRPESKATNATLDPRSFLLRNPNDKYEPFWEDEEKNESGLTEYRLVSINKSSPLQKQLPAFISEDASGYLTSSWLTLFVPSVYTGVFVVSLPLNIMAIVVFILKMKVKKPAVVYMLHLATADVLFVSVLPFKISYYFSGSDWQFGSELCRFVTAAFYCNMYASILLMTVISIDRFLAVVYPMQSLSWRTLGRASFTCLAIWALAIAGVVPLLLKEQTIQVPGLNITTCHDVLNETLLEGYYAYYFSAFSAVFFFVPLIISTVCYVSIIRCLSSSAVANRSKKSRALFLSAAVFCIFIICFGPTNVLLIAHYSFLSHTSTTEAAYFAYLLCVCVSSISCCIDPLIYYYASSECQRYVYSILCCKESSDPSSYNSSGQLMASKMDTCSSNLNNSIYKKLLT
The experiment in a line: Calcium signaling assay, PAR1 activation/disarming in HEK cells. Type of assay: cell-based. The text has this: The Kirsten virus-transformed normal rat kidney (KNRK) epithelial cell line expressing wild-type rat PAR2 (KNRKrPAR2), validated previously for studies of receptor activation was used to evaluate the PAR2-regulating properties of the ISP1 by the methods described previously. Human embryonic kidney cells (HEK293) that express the SV40 T-antigen were kindly provided by Dr. Jonathan Lytton, University of Calgary, Faculty of Medicine, Calgary (Alberta) Canada. The human HEK293 cells, that constitutively express both PAR1 and PAR2, were grown under similar conditions as described for the KNRK cells, but in the absence of geneticin, as outlined for the PAR-mediated calcium signaling procedure described previously. All cells were sub-cultured by dissociation in an isotonic EDTA/saline solution, pH 7.4, without the use of trypsin, to avoid cleavage of PARs.
(§1) Cell lines (grown to about 85% confluence and disaggregated with calcium-free isotonic phosphate-buffered saline containing 0.2 mM EDTA) and rat platelets (harvested from platelet-rich anti-coagulated plasma) were prepared and used as previously described. Cells were incubated for 25 min at room temperature with Fluo-3 acetoxymethyl ester (final concentration, 22 µM) along with 0.4 mM sulfinpyrazone. Cells were washed twice by centrifugation (using the following buffer without calcium) and resuspended in the calcium signaling buffer: 150 mM NaCl, 3 mM KCl, 1.5 mM CaCl2, 20 mM HEPES, 10 mM dextrose, and 0.25 mM sulfinpyrazone, pH 7.4.
Fluorescence was measured at 24 °C with an excitation wavelength of 480 nm and an emission recorded at 530 nm using an Aminco Bowman Series 2 Luminescence spectrometer (ThermoSpectronic Model FA354, Spectronic Unicam, Rochester, NY). The fluorescence signals caused by the addition of test agonists (trypsin, PAR-activating peptide or rISP1, added to 2 ml of a cell suspension of ~3 x 10^5 cells/ml) were compared with the fluorescence peak height yielded by replicate cell suspensions treated with 2 µM ionophore A23187. This concentration of A23187 was at the plateau of its concentration-response curve for a fluorescence response in Fluo-3-loaded cultured cells. Under these conditions, the calculated values for intracellular calcium in the HEK and KNRK cells were [picture] […]
Previous work has shown that the fluorescence response of a cell preparation, as a percentage relative to the signal generated by 2 µM A23187, is a valid reference standard for the comparative determination of calcium signals for all PAR agonists. The cellular calcium response was therefore recorded as a percentage of the response generated by 2 µM ionophore A23187 [6]. […]
Receptor activation was monitored as an enzyme-stimulated increase in fluorescence emission (E530). […]

The target of the next assay is T2, rat PAR4 (Rattus norvegicus, UniProt Q920E0).
T2 construct: rat platelets that express only functional PAR4 but neither PAR1 nor PAR2; endogenous in cells; host or cells: rat platelets from platelet-rich plasma
T2 sequence (Q920E0 17-395): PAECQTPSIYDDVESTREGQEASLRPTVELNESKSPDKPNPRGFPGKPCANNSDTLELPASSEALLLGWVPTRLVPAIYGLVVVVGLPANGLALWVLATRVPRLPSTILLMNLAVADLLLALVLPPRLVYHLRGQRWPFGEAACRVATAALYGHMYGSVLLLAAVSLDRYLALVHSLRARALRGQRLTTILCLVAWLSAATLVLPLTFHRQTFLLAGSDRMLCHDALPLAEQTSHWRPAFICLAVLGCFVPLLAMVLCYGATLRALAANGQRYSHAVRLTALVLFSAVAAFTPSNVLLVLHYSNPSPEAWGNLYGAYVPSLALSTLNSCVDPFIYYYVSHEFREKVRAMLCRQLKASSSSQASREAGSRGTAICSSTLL
The assay is described as follows: Calcium signaling assay, PAR4 activation/disarming in rat platelets. It counts as cell-based. The method, then:
as §1
Fluorescence was measured at 24 °C with an excitation wavelength of 480 nm and an emission recorded at 530 nm using an Aminco Bowman Series 2 Luminescence spectrometer (ThermoSpectronic Model FA354, Spectronic Unicam, Rochester, NY). The fluorescence signals caused by the addition of test agonists (trypsin, PAR-activating peptide or rISP1, added to 2 ml of a cell suspension of ~3 x 10^5 cells/ml) were compared with the fluorescence peak height yielded by replicate cell suspensions treated with 2 µM ionophore A23187. This concentration of A23187 was at the plateau of its concentration-response curve for a fluorescence response in Fluo-3-loaded cultured cells. Under these conditions, the calculated values for intracellular calcium in the HEK and KNRK cells were [picture] 30 nM under basal conditions and about 340 nM upon exposure to A23187 [8, 9].
Previous work has shown that the fluorescence response of a cell preparation, as a percentage relative to the signal generated by 2 µM A23187, is a valid reference standard for the comparative determination of calcium signals for all PAR agonists. The cellular calcium response was therefore recorded as a percentage of the response generated by 2 µM ionophore A23187 [6]. Concentration-effect curves for recombinant enzyme (rISP1) were obtained by measuring the calcium signals generated by measuring the effects (receptor activation or disarming) of increasing enzyme concentrations in replicate cell suspensions (2 ml).
Receptor activation was monitored as an enzyme-stimulated increase in fluorescence emission (E530). As outlined in the following paragraph, receptor disarming or disabling was ascertained by the ability of ISP1 pre-treatment of the cells to abrogate the calcium signal caused by the subsequent addition of either a PAR-activating enzyme (thrombin for PARs 1 & 4; trypsin for PAR2) or a PAR-activating peptide (a reduced response to the activating peptide reflects receptor disabling). […]

The mark [1] stands for this setting: pre-treatment with 5 Units/ml ISP1, then thrombin (0.5 units/ml).
[2] abbreviates: pre-treatment with 20 units ISP1/ml, then thrombin (0.5 units/ml).

B1: ISP1: recombinant implantation serine proteinase 1 expressed in Pichia pastoris, also known as Mouse Prss28 (protein, UniProt Q924N9 27-274, looked up)
Serine protease 28: KPVGIVGGQRTPPGKWPWQVSLRMYSYEVNSWVHICGGSIIHPQWILTAAHCIQSQDADPAVYRVQVGEVYLYKEQELLNISRIIIHPDYNDVSKRFDLALMQLTALLVTSTNVSPVSLPKDSSTFDSTDQCWLVGWGNLLQRVPLQPPYQLHEVKIPIQDNKSCKRAYRKKSSDEHKAVAIFDDMLCAGTSGRGPCFGDSGGPLVCWKSNKWIQVGVVSKGIDCSNNLPSIFSRVQSSLAWIHQHIQ
modifications: recombinant, Pichia pastoris-expressed
notes: recombinant implantation serine proteinase 1 expressed in Pichia pastoris, also known as Mouse Prss28
Consider B1, for which the “Cellular response to PAR1-activating peptide after ISP1 pre-treatment” value in the assay with human PAR1 (TFLLR-NH2 (5 µM), concentration-dependent) is listed as “diminished”. Also, the “Activation of a calcium signal via PAR1” value in the assay with human PAR1 (enzyme alone) was “did not activate a calcium signal”. In addition, the “residual PAR1 activity” value with human PAR1 (setting [1]) is 20%; with human PAR1 (setting [2]), “eliminate PAR1 activity completely”. Further, the “Cellular response to PAR4-activating peptide after ISP1 pre-treatment” value in the assay with rat PAR4 (AYPGKF-NH2 (100 µM), concentration-dependent) was “diminished”. The “Activation of a calcium signal via PAR4” value in the assay with rat PAR4 (enzyme alone) is “did not activate a calcium signal”. Further, in the assay with rat PAR4 (setting [1]), the “residual PAR4 activity triggered by thrombin” value is on record as roughly 75%. For the same molecule, the “residual PAR4 activity (% of control)” value with rat PAR4 (setting [2]) is given as roughly 20%.
